Experimental data reported in patent US20200407442A1 (WUXI BIOLOGICS IRELAND, published 2020).
Positions count from the first letter of the chain named. Values belong to the binder of their own block, whether it stands above or below them.

Key:
Assay in all cases: ELISA, antibody coated, LAG-3 D12.mFc mutant in supernatant, normalised to control mutants
[1] = target: T1, human LAG-3-ECD.D12.mFc mutant P72A (human, UniProt P18627 37-252)
T1 construct: Alanine scanning mutant; construct limits as for m26
T1 chain: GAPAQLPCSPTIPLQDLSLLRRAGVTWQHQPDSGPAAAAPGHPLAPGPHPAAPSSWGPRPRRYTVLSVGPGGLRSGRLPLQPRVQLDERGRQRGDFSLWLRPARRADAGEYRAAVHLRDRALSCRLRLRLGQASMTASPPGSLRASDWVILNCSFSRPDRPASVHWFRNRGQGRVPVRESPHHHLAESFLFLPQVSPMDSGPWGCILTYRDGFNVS
Procedure, shortened: (§1)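 Antibody 1.53.3-uAb-IgG4k or 3.40.19-uAb-hIgG4L coated at 2 μg/mL, then exposed to supernatant containing quantified LAG-3 D12.mFc mutants. Detection with HRP anti-mFc (1:5000). Absorbance normalized to mean of control mutants; binding fold change <0.75 set as epitope cutoff.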

[2] = target: T2, human LAG-3-ECD.D12.mFc mutant V151A (human, UniProt P18627 37-252)
T2 construct: Alanine scanning mutant; construct limits as for m26
T2 chain: T1 chain with A36P, V115A
Procedure, shortened: as §1

[3] = target: T3, human LAG-3-ECD.D12.mFc mutant D131A (human, UniProt P18627 37-252)
T3 construct: Alanine scanning mutant; construct limits as for m26
T3 chain: T1 chain with A36P, D95A
Procedure, shortened: as §1

[4] = target: T4, human LAG-3-ECD.D12.mFc mutant P138A (human, UniProt P18627 37-252)
T4 construct: Alanine scanning mutant; construct limits as for m26
T4 chain: T1 chain with A36P, P102A
Procedure, shortened: as §1

[5] = target: T5, human LAG-3-ECD.D12.mFc mutant P43A (human, UniProt P18627 37-252)
T5 construct: Alanine scanning mutant; construct limits as for m26
T5 chain: T1 chain with P7A, A36P
Procedure, shortened: as §1

[6] = target: T6, human LAG-3-ECD.D12.mFc mutant T100A (human, UniProt P18627 37-252)
T6 construct: Alanine scanning mutant; construct limits as for m26
T6 chain: T1 chain with A36P, T64A
Procedure, shortened: as §1

[7] = target: T7, human LAG-3-ECD.D12.mFc mutant L134A (human, UniProt P18627 37-252)
T7 construct: Alanine scanning mutant; construct limits as for m26
T7 chain: T1 chain with A36P, L98A
Procedure, shortened: as §1

[8] = target: T8, human LAG-3-ECD.D12.mFc mutant R163A (human, UniProt P18627 37-252)
T8 construct: Alanine scanning mutant; construct limits as for m26
T8 chain: T1 chain with A36P, R127A
Procedure, shortened: as §1

Fold Change [1]: 0.743
B1: 1.53.3-uAb-IgG4k (antibody, V domains shown)
VH: QVQLQQWGAGLLKPSETLSLTCGVYGGSFSGYYWSWIRQPPGMGLEWIGEINHRGNTNYNPSLKSRVTISEDTSKNQFSLRLSSVTAADTAVYFCTRGEDYSDYDYYGDFWGQGTLVTVSS
VL: EIVLTQSPATLSLSQGERATLSCRASQSISSYLAWYQQKPGQAPRLLIYAASNRATGIPARFSGSGSGTDFTLTISSLEPEDFAIYYCQQRSNWPLTFGGGTKVEIK
notes: Fully human antibody from OMT rats; IgG4 kappa by its name

Fold Change [2]: 0.043
Fold Change [3]: 0.045
Fold Change [4]: 0.106
Fold Change [5]: 0.494
Fold Change [6]: 0.738
Fold Change [7]: 0.04
Fold Change [8]: 0.655
B2: 3.40.19-uAb-IgG4L (antibody, V domains shown)
VH: QLQLQESGPGLVKPSETLSLTCTVSGDSISSTSYYWGWIRQPPGKGLEWIGSFYYSGSTYYNPSLKSRVTISVDTSKNQFSLKLNSVTAADTAVYYCARMQLWSYDVDVWGQGTTVTVSS
VL: QSALTQPASVSGSPGQSITISCTGTSSDVGGYDYVAWYQQHPGKVPKLMIYDVSERPSGVSNRFSGSKSGNTASLTISGLQAEDEADYYCSSYTSTTTLVVFGGGTKLSVL
notes: Fully human antibody from OMT rats; IgG4 lambda by its name; also called 3.40.19-uAb-hIgG4L
